Reference: the nanobody polyreactivity screen of Harvey et al. (2022)

Experiment: yeast display, Sf9 membrane polyspecificity reagent, FACS + sequencing; frameworks hold sequencing errors
In short: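 A synthetic nanobody library was expressed on Saccharomyces cerevisiae BJ5465 by galactose induction for 36–48 hours. The library was stained for 1 hour at 4 °C with 10% biotinylated, detergent-solubilized Sf9 membrane reagent and enriched with streptavidin microbeads before FACS. Low and high (top ~1%) gates were set on anti-HA fluorescence for expression and streptavidin fluorescence for reagent binding, and each polyreactivity label reflects the gate of origin.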

Sequence | polyreactivity (PSR sort gate)
QVQLVESGGGLVQAGGSLRLSCAASGSTFLYYAMGWYRPAPGKERELVAAISSGDSTYADSVKGRFTISRDNAKNTVYLQMNSLKPEDTAVYYCNTVLYPYWQWDYEFDYWGQGTQVTVSS | low polyreactivity
QVQLVESGGGLVQAGGSLRLSCAASGSTFLYYAMGWYRQAPGKERELVAAITSSGGRTYYADSVKGRFTISRDNAKNTVYLQMNSLKPEDTAVYYCARGWPRREQSEYDYWGQGTQVTVSS | high polyreactivity
QVQLVESGGGLVQAGGSLRLSCAASGSTFLYYAMGWYRQAPGKERELVARITTRVGRTYYADSVKGRFTISRDNAKNTVYFQMNSLKPEDTAVYYCAAYPDYSYYYWGQGTQVTVSS | high polyreactivity
QVQLVESGGGLVQAGGSLRLSCAASGSTFLYYAMGWYRQAPGKERELVASITRRGGRTYYADSVKGRFTISRDNAKNTVYLQMNSLKPVDTAVYYCNAVYGRQYRGYNYKFFYWGQGTQVTVSS | high polyreactivity
QVQLVESGGGLVQAGGSLRLSCAASGSTFLYYEMGWYRQAPGKDRELVAAISASGGSTYYADSVKGRFTISRDNAKSTVYLQMNSLKPEDTAVYYCAAVYHWVRPILYYWGQGTQVTVSS | high polyreactivity
QVQLVESGGGLVQAGGSLRLSCAASGSTFNANAMGWYRQAPGKERELVAGISSGGSTYADSVKGRFTISRDNAKNTVYLQMNSLKPEDSAVYYCNADYYSWYPTFYWYDYWGQGSQVTVSS | high polyreactivity
QVQLVESGGGLVQAGGSLRLSCAASGSTFNAYAMGWYRQAPGKERELVAAISYTGGSTYYADSVKGRFTISRDNAKNTVYLQMNSLKPEDTAVYYCARRQARKFYYWGQGTQVTVSS | high polyreactivity
QVQLVESGGGLVQAGGSLRLSCAASGSTFNDYAMGWYRQAPGKERELVAGITWRGTSTYYADSVKGRFTISRDNAKNTVYLQRNSLKPEDTAVYYCAADVYYLLWLWMDYWGQGTQVTVSS | low polyreactivity
QVQLVESGGGLVQAGGSLRLSCAASGSTFNFNAMGWYRQAPGKERELVAAISSSGGSTYYADSVKGRFTISRDNAKNTVYLQMNSLKPEDTAVYYCATVLRKSPLYYYWGQGTQVTVSS | high polyreactivity
QVQLVESGGGLVQAGGSLRLSCAASGSTFNGYAMGWYRQAPGKERELVAAISKRGGSTYYADSVKGRFTISRDNAKNTVYLQMNSLKPEETAVYYCAARVGRTYTVVWWSHYNYWGQGTQVTVSS | high polyreactivity
QVQLVESGGGLVQAGGSLRLSCAASGSTFNHYAMGWYRQAPGKERELVAAITKSGGSTYADSVKGRFTISRDNAKNTVYIQMNSLKPEDTAVYYCAAGRRKYGTKGRGDYWGQGTQVTVSS | low polyreactivity
QVQLVESGGGLVQAGGSLRLSCAASGSTFNINVMGWYRQAPGKERELVASISTGDITYYADSVKGRFTISRDNAKNTVYLQMNSLKPEDTAVYYCAAESYTGKYSWVWKWYDYWGQGTQVTVSS | low polyreactivity
QVQLVESGGGLVQAGGSLRLSCAASGSTFNIYGMGWYRQAPGKERELVARISSGGSTYADSVKGRFTISRDNAKNTVYLQMNSLKPEDTAVYYCAAAAARTYRRYRYEGYYYWGQGTQVTVSS | high polyreactivity
QVQLVESGGGLVQAGGSLRLSCAASGSTFNKYAMGWYRPPPGKERELVAAISWTGGHTYYADSVKGRFTFSRDNAKNTVYLQMNSLKPEDTAVYYCNTVNSRPKYNYWGQGTQVTVSS | high polyreactivity
QVQLVESGGGLVQAGGSLRLSCAASGSTFNKYTMGWYRQAPGKERELVAAISRIGGSTYYADSVKGRFTISRDNAKNTVYLQMNSLKPEDTAVYYCAAPYPIGHDWGQGTQVTVSS | low polyreactivity
QVQLVESGGGLVQAGGSLRLSCAASGSTFNLYAMGWYRQAPGKERELVAAISGNGDRTYYADSVKGRFTISRDNAKNTVYLQMNSLKPEDTAVYYCAAKYYGWGQGTQVTVSS | high polyreactivity
QVQLVESGGGLVQAGGSLRLSCAASGSTFNNAMGWYRQAPGKERELVAAITRSGVRTYYADSVKGRFTISRDNAKNTVYLQMNSLKPEDTAVYYCAAGFQSRRYYAGYEDWGQGTQVSVSS | high polyreactivity
QVQLVESGGGLVQAGGSLRLSCAASGSTFNPYAMGWYRQAPGKERELLAAITWSSDDTYYADSVKGRFTISRDNAKNTVYLQMNSLKPEDTAVYYCAADVIGDLRWYGDEYWGQGTQVTESS | low polyreactivity
QVQLVESGGGLVQAGGSLRLSCAASGSTFNQYTMGWYRQAPGKERELVAAISKSGGSTYYADSVKGRFTISRDNAKNTVYFQMNSLKPEVTAVYYCAADRYYDYRVDYWGQGTQVTVSS | high polyreactivity
QVQLVESGGGLVQAGGSLRLSCAASGSTFNRNAMGWYRHAPGKERELVATISTGGVSTYYADSVKGRFTISRDNAKNTVYLQMNSLKPEDTAVYYCAKRTVYLSNLDYWGQGTQVTVSS | low polyreactivity
QVQLVESGGGLVQAGGSLRLSCAASGSTFNRYAMGWYRPAPGKEWELVAAISGSNGGTDYADSVKGRFTISRDNAKNTVYLQMNSLKPEDTAVYYCAKVRAYTRLGLTVSMDYWGQGTQVTVSS | high polyreactivity

Sequence | polyreactivity (PSR sort gate)
QVQLVESGGGLVQAGGSLRLSCAASGSTFNRYAMGWYRQAPGKERELVASISWGGGRTYYADSVKGRFTISRDNAKNTVYLQMNSLKPEDSAVYYCAAGGALASQWSTKLYDYWGQGTQVTVSS | low polyreactivity
QVQLVESGGGLVQAGGSLRLSCAASGSTFNRYAMGWYRQAPGTERELVAAISGRGGSTYYADSVKGRFTISRDNAKNTVYLQMNSLKPEDTAVYYCAKLSYLHGTAREFRFDYWGQGTQVTVSS | high polyreactivity
QVQLVESGGGLVQAGGSLRLSCAASGSTFNRYAMGWYRQEPGTERELVASIRISGGSTYYADSVKGRFTISRDNAKNTVYLQMNSLKPEDTAVYYCNAKLFIRWFTYDFLGQGTQVTVSS | low polyreactivity
QVQLVESGGGLVQAGGSLRLSCAASGSTFNSYAMGWYRQAPGKERELVAAITSSVGSTYYADSVKGRFTISRDNAKNTVYLQMNSLKPEDTAVYYCAADYFSYWYFSGYDYWGQGTQVTVSS | low polyreactivity
QVQLVESGGGLVQAGGSLRLSCAASGSTFNSYAMGWYRQAPGKERELVAAITSSVGSTYYADSVKGRFTISRDNAKYTVYLQMNSLKPEDTAVYYCAADYFSYWYFSGYDYWGQGTQVTVSS | low polyreactivity
QVQLVESGGGLVQAGGSLRLSCAASGSTFNVYAMGWYRQAPGKERELVASIRTSGTRTYYADSVKGRFTISRDNAKNTVYLQMNSLKPEDTAVYYCNARYYSNLRRHGGYWGQGTQVTVSS | high polyreactivity
QVQLVESGGGLVQAGGSLRLSCAASGSTFNYYAMGWYRQAPGKERELVAGITWRGRTYYADSVKGRFTISRDNAKNTVYLQMNSLKPEDTAVYYCAARQGTYGYWGQGTQVTVSS | high polyreactivity
QVQLVESGGGLVQAGGSLRLSCAASGSTFPDNAMGWYRQAPGKERELVATITSGASTYYADSVKGRFTISRDNAKNTVYLQMNSLKPEDTAVYYCAVDVYFYYRHYGYWGQGTQVTVSS | low polyreactivity
QVQLVESGGGLVQAGGSLRLSCAASGSTFPDYSKGWYRQAPGKERLLVADITYGGSSTYYADSVKGRFTISSDNAKNTVYLQMNSLKPDDTAVYYCAADTDYYTLIRSVLAYDYWGQGTQVTVSS | low polyreactivity
QVQLVESGGGLVQAGGSLRLSCAASGSTFPDYVMGWYRQAPGKERELVAAISSIGGSTYYADSVKGRFTISRDKAKNTVYLQMNSLKPEDTAVYYCAAENSYFYPFDYWGQGTQVTVSS | low polyreactivity
QVQLVESGGGLVQAGGSLRLSCAASGSTFPFNAMGWYRQAPGKERELVAGIRSRGGSTYYADSVKGRFTISRDNAKNTVYLQMNSLKPEDTAVYYCAKVYKDRDDLFYYWGQGTQVTVSS | low polyreactivity
QVQLVESGGGLVQAGGSLRLSCAASGSTFPFYALGWYRQAPGKERELVAVIRGSGGRTYYADSVKGRFTISRDNAKTTVYLQMNSLKPEDTAVYYCAVKLARLYDSGYNYWGQGTQVTVSS | high polyreactivity
QVQLVESGGGLVQAGGSLRLSCAASGSTFPFYAMGWYRQAPGKERELVAAITSGGSTYADSVKGRFTISRDNAKNTVYLQMNSLKAEVTAVYYCAASWPRWWRFGYWGQGTQVSVSS | low polyreactivity
QVQLVESGGGLVQAGGSLRLSCAASGSTFPFYAMGWYRQAPGKERELVAAITSGGSTYADSVKGRFTITRDNAKNTVYLQMNSLKPEDTSVYYCAASWPRWWRFGYWGQGTQVNVSS | low polyreactivity
QVQLVESGGGLVQAGGSLRLSCAASGSTFPGNAMGWYRQAPGKESELVASISGGGDSTYYADSVKGRFTISRDNAKNTVYLQMISLKPEDTAVYYCAADYRQEPGYTGYYYWGQGTQVTVSS | low polyreactivity
QVQLVESGGGLVQAGGSLRLSCAASGSTFPGYAMGWYRQAPGKERELVAAGGSTYYADSVKGRFTISRDNAKNTVYLEMNCLKPEETAVYYCAATWGSVQKGTYYYWGQGTQVTVSS | low polyreactivity
QVQLVESGGGLVQAGGSLRLSCAASGSTFPGYAMGWYRQAPGKERELVAAISASGGSTYYADSVKGRFTISRDNAKNTVYLQMNSLKPEDTAVYYCAKVLSRGASADDYWGQGTQVTVSS | low polyreactivity
QVQLVESGGGLVQAGGSLRLSCAASGSTFPHYAMGWYRQAPGKERELVAAISWSGSSTYYADSVKGRFTISRDNAKNTVYLQMNSLKPEDTAVYYCNILPRRAPQFTYDYWGQGTQVTVSS | high polyreactivity
QVQLVESGGGLVQAGGSLRLSCAASGSTFPINAMGWYRQAPGTERELVAAIDTNTASTYYADSVKGRFTISRDNAKNTVYLQMNSLKPEDTAVYYCAAEEWFYDGNVIYDWGQGTQVTVSS | high polyreactivity
QVQLVESGGGLVQAGGSLRLSCAASGSTFPIYAMGWYRQAPGKERELVAAITRSGGSTNYADSVKGRFTISRDNAKNTVYLQMNSLKPEDTAVYYCNRTRYRSFHYDYWGQGTQVTVSS | high polyreactivity
